# Data as given in patent US6596526.
# Positions count from the first letter of the chain named.
# B1: Furin deletion mutant Helix 10 (protein)
# chain: QKVFTNTWAVRIPGGPAVANSVARKHGFLNLGQIFGDYYHFWHRGVTKRSLSPHRPRHSRLQREPQVQWLEQQVAKRRTKRDVYQEPTDPKFPQQWYLSGVTQRDLNVKAAWAQGYTGHGIVVSILDDGIEKNHPDLAGNYDPGASFDVNDQDPDPQPRYTQMNDNRHGTRCAGEVAAVANNGVCGVGVAYNARIGGVRMLDGEVTDAVEARSLGLNPNHIHIYSASWGPEDDGKTVDGPARLAEEAFFRGVSQGRGGLGSIFVWASGNGGREHDSCNCDGYTNSIYTLSISSATQFGNVPWYSEACSSTLATTYSSGNQNEKQIVTTDLRQKCTESHTGTSASAPLAAGIIALTLEANKNLTWRDMQHLVVQTSKPAHLNANDWATNGVGRKVSHSYGYGLLDAGAMVALAQNWTTVAPQRKCIIDILTEPKDIGKRLEVRKTVTACLGEPNHITRLEHAQARLTLSYNRRGDLAIHLVSPMGTRSTLLAARPHDYSADGFNDWAFMTTHSWDEDPSGEWVLEIENTSEANNYGTLTKFTLVLYGTAPEGAEMWHQAMEVHLPEVVAGLSCAFIVLVFVTVFLVLQLRSGFSFRGVKVYTMDRGLISYKGLPPEAWQEECPSDSEEDEGRGERTAFIKDQSAL
# B2: Furin deletion mutant Loop 10 (protein)
# chain: B1 chain with A552G, E553S, M554P, W555N, H556S, A558P, M559Y, E560D, V561G
# B3: Furin deletion mutant 578-711 (protein)
# chain: QKVFTNTWAVRIPGGPAVANSVARKHGFLNLGQIFGDYYHFWHRGVTKRSLSPHRPRHSRLQREPQVQWLEQQVAKRRTKRDVYQEPTDPKFPQQWYLSGVTQRDLNVKAAWAQGYTGHGIVVSILDDGIEKNHPDLAGNYDPGASFDVNDQDPDPQPRYTQMNDNRHGTRCAGEVAAVANNGVCGVGVAYNARIGGVRMLDGEVTDAVEARSLGLNPNHIHIYSASWGPEDDGKTVDGPARLAEEAFFRGVSQGRGGLGSIFVWASGNGGREHDSCNCDGYTNSIYTLSISSATQFGNVPWYSEACSSTLATTYSSGNQNEKQIVTTDLRQKCTESHTGTSASAPLAAGIIALTLEANKNLTWRDMQHLVVQTSKPAHLNANDWATNGVGRKVSHSYGYGLLDAGAMVALAQNWTTVAPQRKCIIDILTEPKDIGKRLEVRKTVTACLGEPNHITRLEHAQARLTLSYNRRGDLAIHLVSPMGTRSTLLAARPHDYSADGFNDWAFMTTHSWDEDPSGEWVLEIENTSEANNYGTLTKFTLVLYGTAPEGHLPEVVAGLSCAFIVLVFVTVFLVLQLRSGFSFRGVKVYTMDRGLISYKGLPPEAWQEECPSDSEEDEGRGERTAFIKDQSAL
# Target: recombinant von Willebrand Factor precursor, P04275
row,Protein,processing of rvWF precursor (Western blot)
1,B1,"the R683A, Helix 10, Loop 10 and 578-711 furin constructs evidence proteolytic activity"
2,B2,"the R683A, Helix 10, Loop 10 and 578-711 furin constructs evidence proteolytic activity"
3,B3,"the R683A, Helix 10, Loop 10 and 578-711 furin constructs evidence proteolytic activity"
